Laboratory results taken from publication PMC12044695.

Key:
Test in all cases: ELISA; enzyme-linked lectin assay (ELLA): extracted glycoproteins immobilised at 4 μg/mL on high-binding 96-well plates, blocked with 0.5% PVA, probed 2 h at room temperature with WGAHRP or AuNP–WGAHRP (1 μg/mL WGAHRP) in PBS with 1 mM CaCl2 and 1 mM MgCl2, ABTS read at 405 nm; then the same plate probed with WGA antibodies and AlexaFluor 633 secondary antibodies (FLISA)
[1] = target: WGA-binding glycoproteins purified from NE-4C cells in growth condition
[2] = target: WGA-binding glycoproteins purified from C2C12 cells in differentiation conditions
[3] = target: WGA-binding glycoproteins purified from NSC-34 cells in growth condition
[4] = target: WGA-binding glycoproteins purified from C2C12 cells in growth condition
[5] = target: WGA-binding glycoproteins purified from NSC-34 cells in differentiation conditions

Measured: fluorescence intensity (FLISA) against WGAHRP (% lower than WGAHRP)

gold nanoparticle-conjugated WGAHRP (AuNP-MSA-WGAHRP conjugate) (from UniProt P00433 31-338)
50: all assays above
